Assays:
cynomolgus FLT3 [1] = target: T1, cynomolgus FLT3 (cynomolgus, UniProt A0A2K5VQ48 27-993); assay: flow cytometry on stably expressing cyno FLT3-STAT5-Luciferase cells, AF488 anti-human IgG (H+L) detection
T1 construct: whole, on cells; also called cyno FLT3; monkey FLT3
T1 sequence: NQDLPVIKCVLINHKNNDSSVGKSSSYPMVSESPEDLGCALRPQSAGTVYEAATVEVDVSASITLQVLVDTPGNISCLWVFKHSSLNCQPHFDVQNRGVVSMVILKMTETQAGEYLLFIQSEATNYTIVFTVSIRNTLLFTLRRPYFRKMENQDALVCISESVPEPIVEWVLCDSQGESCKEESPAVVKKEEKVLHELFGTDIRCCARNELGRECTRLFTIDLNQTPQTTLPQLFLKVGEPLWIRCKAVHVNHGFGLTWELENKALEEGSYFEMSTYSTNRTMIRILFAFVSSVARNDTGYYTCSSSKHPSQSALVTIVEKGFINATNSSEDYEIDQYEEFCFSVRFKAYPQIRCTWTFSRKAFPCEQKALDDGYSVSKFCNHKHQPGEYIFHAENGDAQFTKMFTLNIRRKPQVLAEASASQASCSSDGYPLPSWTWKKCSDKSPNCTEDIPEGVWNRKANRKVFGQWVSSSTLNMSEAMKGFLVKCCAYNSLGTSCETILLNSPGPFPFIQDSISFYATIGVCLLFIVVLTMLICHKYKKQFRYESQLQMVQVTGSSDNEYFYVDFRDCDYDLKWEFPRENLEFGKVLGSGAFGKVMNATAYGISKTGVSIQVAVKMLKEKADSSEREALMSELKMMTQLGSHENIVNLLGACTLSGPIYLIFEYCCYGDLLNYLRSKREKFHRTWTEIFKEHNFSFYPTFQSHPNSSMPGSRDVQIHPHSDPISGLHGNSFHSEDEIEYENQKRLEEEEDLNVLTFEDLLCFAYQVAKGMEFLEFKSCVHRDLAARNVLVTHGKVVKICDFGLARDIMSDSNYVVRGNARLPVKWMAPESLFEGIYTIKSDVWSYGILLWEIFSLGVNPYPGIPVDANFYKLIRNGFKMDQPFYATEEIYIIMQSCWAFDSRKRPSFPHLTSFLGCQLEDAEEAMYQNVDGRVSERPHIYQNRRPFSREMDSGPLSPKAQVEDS
Procedure: (§1) Since NB1113 binds to human FLT3, but not mouse FLT3, the binding and functional activity of NB1113 was evaluated in both human and cynomolgus (cyno) FLT3-expressing systems. Stably expressing human and cyno FLT3-STAT5-Luciferase cells were used for both binding and functional assays. The binding of NB1113 to human or cyno FLT3 was assessed by flow cytometry using different concentrations of NB1113 in PBS+2% FBS, followed by detection using AF488 anti-human IgG (H+L) secondary antibody.

cynomolgus FLT3 [2] = target: T1, cynomolgus FLT3; assay: cell-based or functional assay
[3] = target: T2, human FLT3 (FMS-like tyrosine kinase 3) (human, UniProt P36888 27-993); assay: cell-based or functional assay
T2 sequence (looked up): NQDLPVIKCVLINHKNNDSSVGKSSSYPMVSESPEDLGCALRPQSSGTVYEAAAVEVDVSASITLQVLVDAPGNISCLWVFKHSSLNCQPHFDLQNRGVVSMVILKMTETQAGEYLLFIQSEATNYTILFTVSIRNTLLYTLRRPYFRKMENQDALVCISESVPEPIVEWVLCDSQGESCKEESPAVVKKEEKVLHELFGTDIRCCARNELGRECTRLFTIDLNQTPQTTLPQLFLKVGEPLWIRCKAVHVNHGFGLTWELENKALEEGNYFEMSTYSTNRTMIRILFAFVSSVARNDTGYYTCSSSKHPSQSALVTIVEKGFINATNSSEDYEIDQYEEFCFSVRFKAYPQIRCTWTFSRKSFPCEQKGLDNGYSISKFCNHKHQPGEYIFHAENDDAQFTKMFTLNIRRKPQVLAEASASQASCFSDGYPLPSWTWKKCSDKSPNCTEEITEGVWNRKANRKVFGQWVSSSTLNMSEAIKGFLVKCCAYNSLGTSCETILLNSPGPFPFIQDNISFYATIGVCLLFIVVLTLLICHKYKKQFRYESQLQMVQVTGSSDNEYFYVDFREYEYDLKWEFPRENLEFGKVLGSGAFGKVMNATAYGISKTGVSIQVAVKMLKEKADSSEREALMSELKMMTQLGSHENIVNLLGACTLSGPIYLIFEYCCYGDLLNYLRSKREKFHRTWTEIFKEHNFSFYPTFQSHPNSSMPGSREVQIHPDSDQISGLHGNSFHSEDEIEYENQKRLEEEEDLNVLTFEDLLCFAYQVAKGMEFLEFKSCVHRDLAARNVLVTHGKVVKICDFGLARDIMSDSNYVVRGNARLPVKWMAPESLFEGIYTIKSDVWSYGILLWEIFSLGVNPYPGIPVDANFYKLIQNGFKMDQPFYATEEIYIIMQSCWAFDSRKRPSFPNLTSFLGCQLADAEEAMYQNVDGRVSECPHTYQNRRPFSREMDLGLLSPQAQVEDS

mouse FLT3 = target: T3, mouse FLT3 (mouse, UniProt Q00342 28-544, limits assumed); assay: not described
T3 construct: Named only in one sentence; no assay is described
T3 sequence (looked up): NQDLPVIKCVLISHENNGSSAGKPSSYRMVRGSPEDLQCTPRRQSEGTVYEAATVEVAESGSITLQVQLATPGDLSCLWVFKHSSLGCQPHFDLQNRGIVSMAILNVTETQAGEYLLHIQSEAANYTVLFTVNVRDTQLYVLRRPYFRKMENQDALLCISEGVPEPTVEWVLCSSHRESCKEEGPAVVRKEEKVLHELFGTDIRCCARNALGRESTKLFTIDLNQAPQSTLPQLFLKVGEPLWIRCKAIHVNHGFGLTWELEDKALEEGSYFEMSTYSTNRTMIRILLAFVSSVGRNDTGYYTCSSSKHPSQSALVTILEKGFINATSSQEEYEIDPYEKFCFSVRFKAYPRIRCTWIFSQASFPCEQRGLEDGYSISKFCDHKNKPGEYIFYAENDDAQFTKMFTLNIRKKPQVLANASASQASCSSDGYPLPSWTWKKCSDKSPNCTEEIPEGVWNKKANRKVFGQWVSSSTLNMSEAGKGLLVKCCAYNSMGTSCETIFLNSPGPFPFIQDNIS

[4] = target: T2, human FLT3 (FMS-like tyrosine kinase 3); assay: flow cytometry on stably expressing human FLT3-STAT5-Luciferase cells, AF488 anti-human IgG (H+L) detection
Procedure: as §1

- EC50 (cynomolgus FLT3 [1]): 0.9 nM
- EC50 in cyno FLT3-STAT5-Luciferase reporter assay (cynomolgus FLT3 [2]): 1.6 nM
- EC50 in human FLT3-STAT5-Luciferase reporter assay [3]: 1.1 nM
- EC50 of expansion of HLA-DR+CD1c+ cells from primary human bone marrow, 12 days [3]: 0.113 nM
- binding result (mouse FLT3): no binding
- EC50 [4]: 1.36 nM
B1: NB1113 (antibody, V domains shown)
VH: EVQLLESGGGLVQPGGSLRLSCAPSGFTFSNYGMAWVRQAPGKGLEWVSSIHSGGGDTYYRDSVKGRFTISRDNSKNTLYLQMNSLRAEDTAVYYCARGRTPTGYYFDHWGQGTMVTVSS
VL: DIQMTQSPSSLSASVGDRVTITCRASEGIHSGLAWYQQKPGKVPKLLIYNANSLHSGVPSRFSGSGSGTDFTLTISSLQPEDVATYFCQQYYDYPLTFGQGTKLEIK
notes: Light chain variant (N31S in CDR-L1) of humanized NB1063 (VH1 x VL1); The constant regions are not restated for the humanized antibodies; the parent chimera NB1016 is human IgG4PAA (S228P, F234A, L235A) / human kappa; also called NB11113; N31S light chain variant of NB1063
